Measurements: patent US12551573B2, “Compositions and methods for the targeting of PCSK9” (Scribe Therapeutics Inc., priority 2022, dated 2026)
Numbering of substitutions follows the chain as printed. Where two headings read alike, the source gives them in different places.

B1: DOMAIN_17180 (protein, listed as Zalophus californianus)
chain: FQDSVTFEDVAVRFSSGEWQCLTRAQRHLYADVMLENYGNMISVGFAVPKPPLISHLEQGAEPCVQDLQDGGFLSCSFPVS
B2: DOMAIN_17234 (protein)
chain: PENGVTFEDIALYFSWEEWKLLDEAQRRLYHDVMLENFALISSLGVWSGEENVEASFEQSVSVVMSQVRTSKEPSSSQKTH
modifications: Delphinapterus leucas
B3: DOMAIN_17264 (protein)
chain: CEVSVSFEDVTVDFSREEWQHLDPAQRRLYRDVTLENYSHLCSVGYQVPKPEVIFKLEQGEGPWTLEEETPHQSCSDEDMG
modifications: Vicugna pacos
B4: DOMAIN_17474 (protein, listed as Monodelphis domestica)
chain: QVPVTFEDLAVRFSAEEWHLLEEWQREFHRDVMRENYEMLVSLGTAQLLPLSAFLSLTEPQEDMGDNGCSDGEWERPGGGL
B5: DOMAIN_17497 (protein, listed as Monodelphis domestica)
chain: AQEVVSFKDVAVDFTREEWRLLSPPQKELYKEVMLENARNLLSVGLPAPSEEVISYLEQREAPWILEQEGLRNCCSEGEIR
B6: DOMAIN_17534 (protein)
chain: SQGSVSFKDVTVDFTQEEWQQLDPAQKALYRDVMLENYCHFVSVGFHMTKPDMIRKLEQGEELWTQRIFPSYSYLAEDGKT
modifications: Cercocebus atys
B7: DOMAIN_17548 (protein, listed as Neomonachus schauinslandi)
chain: VQGSMSFEDVIVEFTQDEWQYMSPAQRILYRDVMLENYSHLISVGYCTTKPEMIFKLEQGEEPWSLEEEFLNQRYPGYFSV
B8: DOMAIN_17689 (protein)
chain: MAFEDVAVYFSQEEWGLLDTAQRALYRRVMLENFTLVTSLGLSTSRPHVVIQLERGEEPWVPSGKDMTLARNTYRRLNAGE
modifications: Cercocebus atys
B9: DOMAIN_17775 (protein, listed as Camelus dromedarius)
chain: MPQGSVSFKDVTVDFTQEEWQQLDSAQKALYRDVMLENYCHFVSVGFHMTKPDMIHKLEQGKELWTTGRIFPSRSYLGESV
B10: DOMAIN_17801 (protein, listed as Pongo sp.)
chain: EPGAVSFADVAVYFCREEWGCLRPAQRALYRDVMRETYGHLSALGIGGNKPALISWVEEEAELWDPAAQDPEVAKCQTEAD
B11: DOMAIN_31643 (protein, listed as Micrurus lemniscatus)
chain: FREVSVYFSEEEWSWLDPDQKALYWEVMLENHRNMASLGDDGQENKDSYELLQGITARDTMETSAIEMEVERYKEKQSDDWNQESSSCTDDSV
B12: DOMAIN_18459 (protein, listed as Monodelphis domestica)
chain: GQEEVAFKDVAVDFTREEWRLLSPPQKELYKEVMLENIRNLLSVGLPAPPEDMISYLEQREAPWMLEQEGLRSYSPGEEIR
B13: DOMAIN_18646 (protein, listed as Monodelphis domestica)
chain: VKEVVTLQDVAVDFTWEEWRLLSPPQKELYREVMLENAQNLLSVGLPAPLEDVLSYLEQRKGPWMLEQKRLRSCCPGEIRL
B14: DOMAIN_18670 (protein, listed as Neomonachus schauinslandi)
chain: B3 chain with C1L, E2Q, C42H, E68G, S74G, D79A, M80I
B15: DOMAIN_92 (protein, listed as Pan paniscus)
chain: FGNLLGVPWAQGNSALPEGLLSFKDISMEFTWDEWQLLDSTQKYLYRDVILENYHNLISVGYHGTKPDLIFKLEQGEDPWI
B16: DOMAIN_18693 (protein, listed as Camelus dromedarius)
chain: GQESVSFKDVTVDFTWDEWLQLTGMQRTLYRDVMLENYSHLVSVGCCITKPEVIFKLEQGEEPWPREGELPGRRDPDRSQE
B17: DOMAIN_18726 (protein, listed as Myotis davidii)
chain: PNALVTFQDVFVDFSPEELASLSAAQRRLHREVTLENYRNLVSLGYQFPRPDIITQLEEEESSAMEEDSNTKTGPDWETGP
B18: DOMAIN_18923 (protein, listed as Callithrix jacchus)
chain: ASGTLTFDDVALYFSEQEWEILEKWQKQMYKQEMKTNYETLDSLGYAFSKPDLITWMEKGRMLLISDQGRLHKTKRTAGPP
B19: DOMAIN_18979 (protein, listed as Pongo sp.)
chain: CYQDSVTFDDVAVDFTQEEWTLLDSTQRSLYSDVMLENYKNLATVGGQIIKPSLISWLEQEESKTVQGGVLQGRKTQWRGT
B20: DOMAIN_143 (protein, listed as Pan paniscus)
chain: MAAMPLKAQYQEMVTFEDVAVHFTKTEWTGLSPAQRALYRSVMLENFGNLTALGYPVPKPALISLLEGGDMAWGLEAQDDP
B21: DOMAIN_19388 (protein, listed as Physeter macrocephalus)
chain: MTFEDVAVEFTRWEWGQLDPTQKDVYREVMLENFKNLASLGFPMSKPYVICRLEEGEEPCILEREISTGAPADWERRRQAK
B22: DOMAIN_19563 (protein, listed as Papio anubis)
chain: AQMLVTFKDVAVTFTQEEWRQLDLTQRTLYREVMLETCGLLVSLGHRVPKPELVHLLEHGQELWTVKRGLSDPTCAGDRTQ
B23: DOMAIN_19699 (protein, listed as Otolemur garnettii)
chain: B6 chain with S1L, K56R, Q66E, S71G, Y72Q, A76E, T81A
B24: DOMAIN_20025 (protein, listed as Carlito syrichta)
chain: LQGSVSFKDVTVDFTQEEWHQLNPAQKALYRDVMLENYCHFISVGFHMTKPDMIRKLEQGEELWTERIFSRQSHLEEDGKA
B25: DOMAIN_20336 (protein, listed as Panthera pardus)
chain: SQGTVSFKDVAVNFTQEEWQYLDLPQRDLYKDVMLENYTNLISVGYQTTKPSVIHKLEQGEEPWMVEREIPNWSYAEETWQ
B26: DOMAIN_21095 (protein, listed as Trichechus manatus)
chain: LKASVSFKDVAVELTQEEWQHMGPAQRTLYRDVMLENYSHLVSVGYCIFKPEVIFKLEQGEQPWFLEQEFSNQSYPEDYNI
B27: DOMAIN_21277 (protein, listed as Aotus trivirgatus)
chain: PQDLMTFDDVAVEFTQWEWGQLNPAQKDLYREVMLENFRNLTLLGLLVSKPYMICQLEEGGEPFMVNTEISVGAHSDWERR
B28: DOMAIN_21583 (protein, listed as Sarcophilus harrisii)
chain: ALESVTFQDVAVNFTHEEWGHLKPAQKDLYREVMMENYQNFVSLGLPFSKPHVISQLEKGEAPWITEKASLVPRVSCQDFF
B29: DOMAIN_21909 (protein, listed as Suricata suricatta)
chain: AHHLVMFRDVAVDFSQDEWECLNSYQRNLYRDVILENYSNLVSVAGCSISKPDVITLLEQGREPWMVVRDERRRRTLDLES
B30: DOMAIN_22278 (protein, listed as Pteropus vampyrus)
chain: KPEDVSFAEVAVYFSLDEWGYLWPAQRALYRDVMRETYGHFGELGFPGPKPALISWMEQESEAWSPAAQDPEEGESVGGAV
B31: DOMAIN_22311 (protein, listed as Monodelphis domestica)
chain: AQEVVSFKDVAVDFTREEWRLLSPPQKELYKEVMLENARNLLSVGLSAPPEDMFSSLEQREAPWMLEKDDLRSCCPEGKMR
B32: DOMAIN_22375 (protein, listed as Tursiops truncatus)
chain: PQGCAISEDVFVYFSREEWVLLDEDQRLLYRDVMLENFALLASLGITSSRSYLVTQLEQGEEPWMPAQVDMTAATEKEAQK
B33: DOMAIN_22454 (protein, listed as Monodelphis domestica)
chain: AQEVVTFKDVAVDFTREEWCLLSPPQKELYKEVMLENAQNLLSVGLPGPPEDVISYLKQRKDPWMLEQEGLRSCCPEGEIR
B34: DOMAIN_22459 (protein, listed as Monodelphis domestica)
chain: SQGPVKFEDVAIYLWKEEWELMDSTQKRLYRQVMLETYENVLSVGTPHDKPAMIVHLEQGETAWSPALQRPGKEKGRLHGH
B35: DOMAIN_22483 (protein, listed as Aotus trivirgatus)
chain: TQESLTLEDVAVEFSWEEWQLLDTAQKDLYRDVMVENYNHLVSLGYQTSKPDALSKLAHGQEPWMTDAKIQNKNCPGIRKV
B36: DOMAIN_22495 (protein, listed as Callorhinus ursinus)
chain: CEGLVSFEDVTMDFSREEWQQLDPAQRCLYWDVMLEIYSHLLSVGYHIPNPEIISRMEKGKKSWIRGAQLPHQRHREVVFG
B37: DOMAIN_22527 (protein, listed as Tursiops truncatus)
chain: VQASLSFEDVAVHFTWEEWQLLDPSQKDLYRNVMWENYCNLVSVGYQTPKPDSFFQLEQGEPPWTVEGAGQSQTCPGTRAS

System: HBEGF locus
Type: cell-based, human
Details: high-throughput screen of dXR repression of the HBEGF gene
[1] = abundance of each domain in the library before and after diphtheria toxin selection, HEK293T cells
[2] = change in abundance of each domain in the library before and after diphtheria toxin selection
[3] = abundance of each domain in the library before vs after diphtheria toxin selection, listed domains met p-value <0.01 and log2(fold change) >2

Row | Molecule | Log2 (fold change) [1] | Log2 (fold change) [3] | further results
1 | B1 | 2.945 |  | 
2 | B2 | 2.0152 |  | 
3 | B3 | 3.0866 |  | 
4 | B4 | 2.683 |  | 
5 | B5 | 2.8088 |  | 
6 | B6 | 2.9374 |  | 
7 | B7 | 2.8002 |  | 
8 | B8 | 3.6469 |  | 
9 | B9 | 2.6595 |  | 
10 | B10 | 2.9733 |  | 
11 | B11 |  |  | Log2 (fold change) [2]: 3.8782
12 | B12 | 3.1352 |  | 
13 | B13 | 2.4678 |  | 
14 | B14 | 3.1792 |  | 
15 | B15 |  |  | Log2 (fold change) [2]: 2.1475
16 | B16 | 3.0179 |  | 
17 | B17 | 2.9362 |  | 
18 | B18 | 2.2053 |  | 
19 | B19 | 2.0034 |  | 

Row | Molecule | Log2 (fold change) [1] | Log2 (fold change) [3] | further results
20 | B20 |  |  | Log2 (fold change) [2]: 3.63
21 | B21 | 3.2831 |  | 
22 | B22 |  | 2.5522 | 
23 | B23 |  | 2.8474 | 
24 | B24 |  | 2.2451 | 
25 | B25 |  | 2.3293 | 
26 | B26 |  | 2.5003 | 
27 | B27 |  | 2.7115 | 
28 | B28 |  | 3.1529 | 
29 | B29 |  | 3.2301 | 
30 | B30 |  | 3.3575 | 
31 | B31 |  | 2.9903 | 
32 | B32 |  | 2.5484 | 
33 | B33 |  | 2.6042 | 
34 | B34 |  | 2.9261 | 
35 | B35 |  | 2.1702 | 
36 | B36 |  | 2.2623 | 
37 | B37 |  | 2.989 | 
